From paper PMC10786891, “Massively parallel profiling of RNA-targeting CRISPR-Cas13d”

Molecular target: T1, EsCas13d, nuclease-dead (Eubacterium siraeum, UniProt B0MS50, R295A;H300A;R849A;H854A)
T1 sequence: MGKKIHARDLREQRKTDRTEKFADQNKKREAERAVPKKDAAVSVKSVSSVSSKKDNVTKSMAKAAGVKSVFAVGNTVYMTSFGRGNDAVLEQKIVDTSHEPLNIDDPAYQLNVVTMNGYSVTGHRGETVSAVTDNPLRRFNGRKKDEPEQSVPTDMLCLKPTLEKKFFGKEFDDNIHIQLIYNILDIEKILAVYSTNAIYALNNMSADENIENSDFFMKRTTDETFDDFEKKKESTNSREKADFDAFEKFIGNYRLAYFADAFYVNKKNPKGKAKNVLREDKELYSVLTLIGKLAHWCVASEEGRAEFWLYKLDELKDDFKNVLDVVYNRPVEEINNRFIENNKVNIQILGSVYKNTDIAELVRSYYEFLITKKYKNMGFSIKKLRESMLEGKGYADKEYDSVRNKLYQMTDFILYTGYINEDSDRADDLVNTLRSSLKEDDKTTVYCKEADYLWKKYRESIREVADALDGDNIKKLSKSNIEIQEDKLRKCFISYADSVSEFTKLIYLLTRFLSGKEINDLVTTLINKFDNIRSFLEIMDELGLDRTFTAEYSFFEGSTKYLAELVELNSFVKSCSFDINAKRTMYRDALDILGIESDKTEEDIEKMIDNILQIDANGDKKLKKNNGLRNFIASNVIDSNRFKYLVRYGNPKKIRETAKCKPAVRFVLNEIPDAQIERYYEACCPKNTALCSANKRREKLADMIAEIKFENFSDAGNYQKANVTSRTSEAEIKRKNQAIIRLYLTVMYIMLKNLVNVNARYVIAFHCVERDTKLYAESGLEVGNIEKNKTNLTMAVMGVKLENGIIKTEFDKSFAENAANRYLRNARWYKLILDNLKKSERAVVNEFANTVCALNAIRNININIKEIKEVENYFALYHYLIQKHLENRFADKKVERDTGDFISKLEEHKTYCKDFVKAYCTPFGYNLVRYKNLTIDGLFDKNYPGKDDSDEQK
Experiment: crRNA (strand 1, pre-loaded); Mg2+; 40 mM Tris-HCl pH 7.5, 150 mM NaCl, 6 mM MgCl2, 1 mM DTT, 0.1% Tween-20, 0.2 mg/ml BSA; 25 C; 10 min per concentration, then washed
Conditions: tags: His6-TwinStrep-SUMO cleaved; N-terminal SNAP kept (SNAP-Surface 488); label: 3' end held by stalled T7 RNA polymerase

| Binder | Kd |
| --- | --- |
| target 3 insG 3' of 6,insA 3' of 3 (mixed) RNA 1: CACCCGUGCAAAAUUGCAGGGGUCUAAAACGACCUGAAUAUUUCAGAUCAAA RNA 2: GGGAAUGGAUCCACAUCUACGAAUUCGUUUUUGAUCUGAAAUAUUCGAGGAUCUGCAGAUCGGAAGAGCACACGU | 10.4 ± 1.15 nM |
| target 3 A12U (mixed) RNA 1: CACCCGUGCAAAAUUGCAGGGGUCUAAAACGACCUGAAUAUUUCAGAUCAAA RNA 2: GGGAAUGGAUCCACAUCUACGAAUUCGUUUUUGAUCUGAUAUAUUCAGGUCUGCAGAUCGGAAGAGCACACGU | 73.5 ± 19.5 nM |
| target 3 C6A,U8C (mixed) RNA 1: CACCCGUGCAAAAUUGCAGGGGUCUAAAACGACCUGAAUAUUUCAGAUCAAA RNA 2: GGGAAUGGAUCCACAUCUACGAAUUCGUUUUUGAUCUGAAAUACUAAGGUCUGCAGAUCGGAAGAGCACACGU | 34.9 ± 3.6 nM |
| target 3 C1A,U8A (mixed) RNA 1: CACCCGUGCAAAAUUGCAGGGGUCUAAAACGACCUGAAUAUUUCAGAUCAAA RNA 2: GGGAAUGGAUCCACAUCUACGAAUUCGUUUUUGAUCUGAAAUAAUCAGGUAUGCAGAUCGGAAGAGCACACGU | 68 ± 17.5 nM |
| target 3 U8A (mixed) RNA 1: CACCCGUGCAAAAUUGCAGGGGUCUAAAACGACCUGAAUAUUUCAGAUCAAA RNA 2: GGGAAUGGAUCCACAUCUACGAAUUCGUUUUUGAUCUGAAAUAAUCAGGUCUGCAGAUCGGAAGAGCACACGU | 58.5 ± 7.5 nM |
| target 3 insC 3' of 11,insA 3' of 7 (mixed) RNA 1: CACCCGUGCAAAAUUGCAGGGGUCUAAAACGACCUGAAUAUUUCAGAUCAAA RNA 2: GGGAAUGGAUCCACAUCUACGAAUUCGUUUUUGAUCUGAAACUAUUACAGGUCUGCAGAUCGGAAGAGCACACGU | 65 ± 19 nM |
| target 3 U8C,A11C (mixed) RNA 1: CACCCGUGCAAAAUUGCAGGGGUCUAAAACGACCUGAAUAUUUCAGAUCAAA RNA 2: GGGAAUGGAUCCACAUCUACGAAUUCGUUUUUGAUCUGAACUACUCAGGUCUGCAGAUCGGAAGAGCACACGU | 57 ± 14 nM |
| target 3 insU 3' of 14,insC 3' of 3 (mixed) RNA 1: CACCCGUGCAAAAUUGCAGGGGUCUAAAACGACCUGAAUAUUUCAGAUCAAA RNA 2: GGGAAUGGAUCCACAUCUACGAAUUCGUUUUUGAUCUGUAAAUAUUCAGGCUCUGCAGAUCGGAAGAGCACACGU | 71 ± 28 nM |
| target 3 G4C,A9G (mixed) RNA 1: CACCCGUGCAAAAUUGCAGGGGUCUAAAACGACCUGAAUAUUUCAGAUCAAA RNA 2: GGGAAUGGAUCCACAUCUACGAAUUCGUUUUUGAUCUGAAAUGUUCACGUCUGCAGAUCGGAAGAGCACACGU | 43.5 ± 6.5 nM |
| target 3 insU 3' of 11,insU 3' of 5 (mixed) RNA 1: CACCCGUGCAAAAUUGCAGGGGUCUAAAACGACCUGAAUAUUUCAGAUCAAA RNA 2: GGGAAUGGAUCCACAUCUACGAAUUCGUUUUUGAUCUGAAAUUAUUCAUGGUCUGCAGAUCGGAAGAGCACACGU | 64 ± 13 nM |
| target 3 insC 3' of 5,insA 3' of 3 (mixed) RNA 1: CACCCGUGCAAAAUUGCAGGGGUCUAAAACGACCUGAAUAUUUCAGAUCAAA RNA 2: GGGAAUGGAUCCACAUCUACGAAUUCGUUUUUGAUCUGAAAUAUUCACGGAUCUGCAGAUCGGAAGAGCACACGU | 7.35 ± 0.5 nM |
| target 3 G4U,A5U (mixed) RNA 1: CACCCGUGCAAAAUUGCAGGGGUCUAAAACGACCUGAAUAUUUCAGAUCAAA RNA 2: GGGAAUGGAUCCACAUCUACGAAUUCGUUUUUGAUCUGAAAUAUUCUUGUCUGCAGAUCGGAAGAGCACACGU | 25.2 ± 3.6 nM |
| target 3 insC 3' of 9,insG 3' of 9 (mixed) RNA 1: CACCCGUGCAAAAUUGCAGGGGUCUAAAACGACCUGAAUAUUUCAGAUCAAA RNA 2: GGGAAUGGAUCCACAUCUACGAAUUCGUUUUUGAUCUGAAAUACGUUCAGGUCUGCAGAUCGGAAGAGCACACGU | 118 ± 50 nM |
| target 3 insG 3' of 9,insU 3' of 4 (mixed) RNA 1: CACCCGUGCAAAAUUGCAGGGGUCUAAAACGACCUGAAUAUUUCAGAUCAAA RNA 2: GGGAAUGGAUCCACAUCUACGAAUUCGUUUUUGAUCUGAAAUAGUUCAGUGUCUGCAGAUCGGAAGAGCACACGU | 74.5 ± 19 nM |
| target 3 A5G (mixed) RNA 1: CACCCGUGCAAAAUUGCAGGGGUCUAAAACGACCUGAAUAUUUCAGAUCAAA RNA 2: GGGAAUGGAUCCACAUCUACGAAUUCGUUUUUGAUCUGAAAUAUUCGGGUCUGCAGAUCGGAAGAGCACACGU | 20.9 ± 1.8 nM |
| target 3 insC 3' of 9,insA 3' of 8 (mixed) RNA 1: CACCCGUGCAAAAUUGCAGGGGUCUAAAACGACCUGAAUAUUUCAGAUCAAA RNA 2: GGGAAUGGAUCCACAUCUACGAAUUCGUUUUUGAUCUGAAAUACUAUCAGGUCUGCAGAUCGGAAGAGCACACGU | 43.9 ± 7.35 nM |
| target 3 U2G,A9C (mixed) RNA 1: CACCCGUGCAAAAUUGCAGGGGUCUAAAACGACCUGAAUAUUUCAGAUCAAA RNA 2: GGGAAUGGAUCCACAUCUACGAAUUCGUUUUUGAUCUGAAAUCUUCAGGGCUGCAGAUCGGAAGAGCACACGU | 106 ± 49.5 nM |
| target 3 C1G,A12U (mixed) RNA 1: CACCCGUGCAAAAUUGCAGGGGUCUAAAACGACCUGAAUAUUUCAGAUCAAA RNA 2: GGGAAUGGAUCCACAUCUACGAAUUCGUUUUUGAUCUGAUAUAUUCAGGUGUGCAGAUCGGAAGAGCACACGU | 63 ± 18 nM |
| target 3 G3C,U7C (mixed) RNA 1: CACCCGUGCAAAAUUGCAGGGGUCUAAAACGACCUGAAUAUUUCAGAUCAAA RNA 2: GGGAAUGGAUCCACAUCUACGAAUUCGUUUUUGAUCUGAAAUAUCCAGCUCUGCAGAUCGGAAGAGCACACGU | 64 ± 12 nM |
| target 3 C1G,A5G (mixed) RNA 1: CACCCGUGCAAAAUUGCAGGGGUCUAAAACGACCUGAAUAUUUCAGAUCAAA RNA 2: GGGAAUGGAUCCACAUCUACGAAUUCGUUUUUGAUCUGAAAUAUUCGGGUGUGCAGAUCGGAAGAGCACACGU | 55 ± 22 nM |
| target 3 C1U,A5G (mixed) RNA 1: CACCCGUGCAAAAUUGCAGGGGUCUAAAACGACCUGAAUAUUUCAGAUCAAA RNA 2: GGGAAUGGAUCCACAUCUACGAAUUCGUUUUUGAUCUGAAAUAUUCGGGUUUGCAGAUCGGAAGAGCACACGU | 20.6 ± 3.3 nM |
| target 3 del5,del22 (mixed) RNA 1: CACCCGUGCAAAAUUGCAGGGGUCUAAAACGACCUGAAUAUUUCAGAUCAAA RNA 2: GGGAAUGGAUCCACAUCUACGAAUUCGUUUUGAUCUGAAAUAUUCGGUCUGCAGAUCGGAAGAGCACACGU | 29.3 ± 2.3 nM |
| target 3 complement block 4-8 (mixed) RNA 1: CACCCGUGCAAAAUUGCAGGGGUCUAAAACGACCUGAAUAUUUCAGAUCAAA RNA 2: GGGAAUGGAUCCACAUCUACGAAUUCGUUUUUGAUCUGAAAUAAAGUCGUCUGCAGAUCGGAAGAGCACACGU | 51.5 ± 5.5 nM |
| target 3 insA 3' of 22,insA 3' of 21 (mixed) RNA 1: CACCCGUGCAAAAUUGCAGGGGUCUAAAACGACCUGAAUAUUUCAGAUCAAA RNA 2: GGGAAUGGAUCCACAUCUACGAAUUCGUUUAUAUGAUCUGAAAUAUUCAGGUCUGCAGAUCGGAAGAGCACACGU | 31.9 ± 4.5 nM |
| target 3 insC 3' of 7,insG 3' of 7 (mixed) RNA 1: CACCCGUGCAAAAUUGCAGGGGUCUAAAACGACCUGAAUAUUUCAGAUCAAA RNA 2: GGGAAUGGAUCCACAUCUACGAAUUCGUUUUUGAUCUGAAAUAUUCGCAGGUCUGCAGAUCGGAAGAGCACACGU | 16.8 ± 1.45 nM |
| target 1 insA 3' of 13,insG 3' of 2 (mixed) RNA 1: CACCCGUGCAAAAAUGCAGGGGUCUAAAACUGAGCGGAUAACCUCUCUAUGG RNA 2: GGGAAUGGAUCCACAUCUACGAAUUCGUACCAUAGAGAGAGUUAUCCGCUCGACCGAGAUCGGAAGAGCACACGU | 3.54 ± 0.28 nM |
| target 1 C2U,U10C (mixed) RNA 1: CACCCGUGCAAAAAUGCAGGGGUCUAAAACUGAGCGGAUAACCUCUCUAUGG RNA 2: GGGAAUGGAUCCACAUCUACGAAUUCGUACCAUAGAGAGGUCAUCCGCUUACCGAGAUCGGAAGAGCACACGU | 20.8 ± 1.6 nM |
| target 1 insG 3' of 22,insU 3' of 20 (mixed) RNA 1: CACCCGUGCAAAAAUGCAGGGGUCUAAAACUGAGCGGAUAACCUCUCUAUGG RNA 2: GGGAAUGGAUCCACAUCUACGAAUUCGUACGCAUUAGAGAGGUUAUCCGCUCACCGAGAUCGGAAGAGCACACGU | 38 ± 5 nM |
